Tests used:
HIV-1 integrase [1] = target: T1, HIV-1 integrase (Human immunodeficiency virus 1 (BH10), UniProt P03366 P03366:1160-1447); assay: FP filter; deletion had no noticeable effect on binding; settings: tags: gift of Agouron Pharmaceuticals; BH10 clone
HIV-1 integrase [2] = target: T1, HIV-1 integrase; assay: competition; inhibits binding of con+/- U5 DNA, 180 mM NaCl; settings: tags: gift of Agouron Pharmaceuticals; BH10 clone; stem-loops with GNRA tetraloop and putative pseudoknot (11-14 with 28-31)
HIV-1 integrase [3] = target: T1, HIV-1 integrase; assay: FP filter; nitrocellulose filter; 250 mM NaCl, 10 mM MnCl2, pH 7.5, 37 C; settings: tags: gift of Agouron Pharmaceuticals; BH10 clone; stem-loops with GNRA tetraloop and putative pseudoknot (11-14 with 28-31)
Protocol: (§1) Binding assays were done by adding 5 µl of HIV-1 integrase protein, at the appropriate concentrations (i.e., ranging from 2 ×10^-6 with 3 fold dilutions to 9 ×10^-9 for 250 mM NaCl and 0.5 ×10^-7 with 3 fold dilutions to 2 ×10^-10 for 50 mM NaCl), to 45 µl of binding buffer (50 mM Na-HEPES pH 7.5, 250 mM NaCl, 2 mM DTT, 10 mM MnCl_2, 5 mM CHAPS) on ice, then adding 50,000 cpm of kinased RNA (<200 fmoles) in a volume of 3 to 4 µl. This mix is incubated at 37° C. for 20 minutes. The reactions were then passed over nitrocellulose filters, which were pre-equilibrated in buffer, and washed with a 50 mM Tris-Cl pH 7.5 solution. Filters were dried and counted in cocktail. The proteins used in these experiments were frozen and thawed only once. Each binding curve consisted of seven points and each point is an average since experiments were done in triplicate.

HIV-1 integrase [4] = target: T1, HIV-1 integrase; assay: FP filter; nitrocellulose filter; 50 mM NaCl; settings: tags: gift of Agouron Pharmaceuticals; BH10 clone; stem-loops with GNRA tetraloop and putative pseudoknot (11-14 with 28-31)
Protocol: as §1

HIV-1 integrase [5] = target: T1, HIV-1 integrase; assay: FP filter; nitrocellulose filter; 250 mM NaCl; settings: tags: gift of Agouron Pharmaceuticals; BH10 clone
Protocol: as §1

HIV-1 integrase [6] = target: T1, HIV-1 integrase; assay: FP filter; binding completely abolished; settings: tags: gift of Agouron Pharmaceuticals; BH10 clone

B1: P5 truncate lacking 1-6 and 64-77 (ssRNA)
RNA: UCAGAAUAAACGCUCAACCAGUCUUGUGGCUUUGAAAGAGAGGAGUGUUCGACAUGA
Question: Does B1 bind (HIV-1 integrase [1])?
Answer: Result: binds

B2: P5 (ssRNA)
RNA: GGGAGCUCAGAAUAAACGCUCAACCAGUCUUGUGGCUUUGAAAGAGAGGAGUGUUCGACAUGAGGCCCGGAUCCGGC
Question: Which IC50 (HIV-1 integrase [2]) does the source give for B2 here?
Answer: Its IC50 is 6 nM.

Question: What about the Kd (HIV-1 integrase [3]) of the same binder?
Answer: The Kd was 12 nM.

Question: And the Kd (HIV-1 integrase [4])?
Answer: The Kd was 2 nM.

B3: P23 (ssRNA)
RNA: GGGAGCUCAGAAUAAACGCUCAACCAGUCUUAUGGCGUUGCAAGAUAGGGGCGUUCGACAUGAGGCCCGGAUCCGGC
Question: B3 was tested. Which Kd (HIV-1 integrase [5]) did it give?
Answer: Its Kd is 25 nM.

B4: P5 deletion of 1-14 (ssRNA)
RNA: AACGCUCAACCAGUCUUGUGGCUUUGAAAGAGAGGAGUGUUCGACAUGAGGCCCGGAUCCGGC
Question: Does B4 bind (HIV-1 integrase [6])?
Answer: Result: no binding

B5: P5 deletion of 56-77 (ssRNA)
RNA: GGGAGCUCAGAAUAAACGCUCAACCAGUCUUGUGGCUUUGAAAGAGAGGAGUGUU
Question: Does B5 bind (HIV-1 integrase [6])?
Answer: Result: no binding
